According to PMC8805025:

test system: CcNsdD2-C (C-terminal DNA-binding domain of CcNsdD2) (Coprinopsis cinerea AmutBmut (pab1-1)), ORF:b1e54c23; test: EMSA; settings: EMSA: 30 uL, 1x EMSA binding buffer (composition not given), 1.5 ug salmon sperm DNA, 50 ng probe, 4 ug CcNsdD2-C, 37 C 30 min; 5% PAGE in 1x TBE pH 8.3
Sequence (chain, as listed by the source): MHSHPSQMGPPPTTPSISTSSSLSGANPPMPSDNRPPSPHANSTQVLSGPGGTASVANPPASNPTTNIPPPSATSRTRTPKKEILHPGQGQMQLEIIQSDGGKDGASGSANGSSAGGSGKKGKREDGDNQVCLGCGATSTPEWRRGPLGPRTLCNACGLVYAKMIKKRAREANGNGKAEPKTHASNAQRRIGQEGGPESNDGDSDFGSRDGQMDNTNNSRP

binding, binds:
AGCACGTGGTCGAAAGCGTACTGTGGAGCAGGGAGAACGTTTGAAGATACCGAAGAAGCATCGGCTAGACCAAATCAAGCAGATCGGTGTACAGATATAGAATGTTTAGCTTGTTATTCGGTTCCAAGGAATACAGTCACAGCTCAGGAGCTTTCGACCACGTGCT (double strand) [hyd1 promoter probe]
AGCACGTGGTCGAAAGTTCGCAATTTCATTGCATCCCTGAGCCACCTGACCACCGGAGATCGCTGAATATTGCTTGGGCCAGATATGACCAGAGTTAGCTTGATAGATCGGCATCCCCAATGACGGAGATGAAGTCGGAAGAGCCGAATCCTTTCGACCACGTGCT (double strand) [cgl1 promoter probe]
AGCACGTGGTCGAAAGCCGTGGTTGGGCAGATGTGGTGGGTGAAGATCGGCAAAAATAACAGGACGCGATCTATGAAAAGTCACGGATTCGCGAAGGGGGCAAATAGATCGCGTAGGAGCAAAAGGCGTGTGCATCGCGCGCTTTGGTTACTTTCGACCACGTGCT (double strand) [cfs1 promoter probe]
AGCACGTGGTCGAAAGTCAGACGAAATCGCCGATTCGCCGAACTCAAGGCCAAATGCATTTTAAACTCCGATCTCGGTGGGTCGCTCACCGATAGATCTCAAAACGATTTCGTTTCTGTGACGAGCATGGCTTCGACGCATTATCCAACGGCTCCTTTCGACCACGTGCT (double strand) [nsdD1 promoter probe]
AGCACGTGGTCGAAAGGAAGTTGCTGTATACTCGATGACACTCAAGAGTGAGAGGGTTTCGGCCCGTGAGAGTTTCAAGCGGAGATCAAAAGCGATACAGTGATTAGATTAAAACAACGAGTAGATAAGATGGAGATCTTTCGACCACGTGCT (double strand) [cfs2 promoter probe]
